From US5532348

What was measured:
[1] = biological target: HPV16 E6, wheat germ extract translated (human papillomavirus type 16) (UniProt P03126)
[2] = biological target: HPV16 E6, wheat germ extract translated (human papillomavirus type 16) (UniProt P03126); remark: listed apart in the source

Row | Substance | molar excess for fifty percent binding competition [1] | percent of the input 35S-labeled HPV16 E6 bound [2] [%]
1 | synthetic peptide consisting of the 18 mer region, amino acids 391 to 408 of SEQ ID NO:1 (SEQ ID NO:3) | 5000 | –
2 | GST-E6-AP fusion protein, amino-terminal portion (amino acids 213 to 489 of SEQ ID NO:1) | – | 50
3 | GST-E6-AP fusion protein with amino acids 371 to 440 of SEQ ID NO:1 (SEQ ID NO:2) | – | 50
